Measurements from patent publication US20240101959A1, “USE OF IL-2R-BETA-GAMMA AGONIST PEPTIDES IN CELL MANUFACTURING” (MEDIKINE, INC., priority 2022, published 2024).
Positions of bridges follow the written chain, without caps; N, C: chain ends. No end group written: not given here.

Molecular target: T1, hu-IL-2Rβ subunit (human, UniProt P14784 27-240, limits assumed)
T1 construct: also called human interleukin-2 receptor subunit β; CD122
T1 sequence (looked up): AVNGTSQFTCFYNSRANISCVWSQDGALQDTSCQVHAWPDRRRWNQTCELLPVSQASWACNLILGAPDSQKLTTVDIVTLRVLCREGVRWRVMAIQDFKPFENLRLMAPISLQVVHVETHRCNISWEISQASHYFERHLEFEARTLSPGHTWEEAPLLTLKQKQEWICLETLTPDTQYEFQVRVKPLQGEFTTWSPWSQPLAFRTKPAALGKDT
Test: phage ELISA competition assay

IC50, < 100 µM:
ALVGGTFYPCYVAHLGELCDIE (disulfide 10-19 (inferred)) [SEQ ID NO 204]
WYSCGKAQLGELCDLDVESQPG [SEQ ID NO 222]
GAGVLHRWPCWMAKLGDLCDLD [SEQ ID NO 198]
WRRWYPCWMAQLGELCDLDQWT [SEQ ID NO 237]
LHPCWMAQLGELCDLE (disulfide 4-13 (inferred)) [SEQ ID NO 188]
WFPCWMAQLGDLCELEPDSVPA [SEQ ID NO 225]
TVGQFEWYPCSTAQLGELCDLD [SEQ ID NO 203]
VMSPTRWLPCWIAKLGELCDLE [SEQ ID NO 88]
RRSWYPCRIAQLGELCDLDPRV (disulfide 7-16 (inferred)) [SEQ ID NO 238]
WLSPPSYLPCWMAQLGELCDLV [SEQ ID NO 196]
SGHWYPCWMARLGELCDMEERA [SEQ ID NO 92]
AVSHGNWLPCYIAQLGELCDLD [SEQ ID NO 207]
WNPCWIAQLGDLCDMV [SEQ ID NO 194]
WKPCWMARLGELCDIEDTKVNA [SEQ ID NO 213]
FFPCWMGQLGDLCDLEVRSMQK [SEQ ID NO 230]
WKPCWRAQLGELCDLELGPSER [SEQ ID NO 229]
YWPCSMASLGELCDLEWQGRLP [SEQ ID NO 231]
WKPCWMAGLGELCELD [SEQ ID NO 190]
YVPCYMARLGELCELEANRPGQ [SEQ ID NO 223]
WKPCFIASLGELCDLDQGSVEV [SEQ ID NO 227]
SKPCWMAQLGELCDLDVWNLQM [SEQ ID NO 218]
IPKGESWFPCWMAAMGELCDLE (disulfide 10-19 (inferred)) [SEQ ID NO 208]
WQPCWRAKLGELCDLE [SEQ ID NO 192]
YKPCQMAQLGELCDLDVDNKAE [SEQ ID NO 211]
AYRIYPCWKAQLGELCDLDNAD [SEQ ID NO 239]
SNPCWMAQLWELCDLE [SEQ ID NO 182]
WFPCWMAQLGQLCDLE [SEQ ID NO 89]
WYPCWMAQLGELCDHEWPSYGA [SEQ ID NO 233]
WKPCWMAALGELCDLERSVGKV [SEQ ID NO 228]
WYPCWMAHLGDVCDLESFGQTE [SEQ ID NO 210]
YRRERVEFPCWLAQLGELCDKE [SEQ ID NO 206]
SLPCWMAQLGELCDLV [SEQ ID NO 189]
FYPCWKARLGELCELEELRGYY [SEQ ID NO 215]
WYPCWIAQLGEVCDLEKQTGSV [SEQ ID NO 209]
WDVHAIRNPCWLAKLGDLCDLD [SEQ ID NO 197]
WRPCWRAYLGELCDLEAMPRAT [SEQ ID NO 90]
SLPCWIARLGELCDLDGYDGEE [SEQ ID NO 214]
DTGRDGWKPCWMALLGELCELE [SEQ ID NO 199]
WTPCWIAHLGDLCDLEPQDDTD [SEQ ID NO 226]
WYPCWMAQLGELCDLQTMGYSH [SEQ ID NO 93]
WKPCWLAQLGDLCEME [SEQ ID NO 185]
GSGWQPCWMADLGELCDLDNEK [SEQ ID NO 236]
WKPCWLAQLGELCDLERPSTTS [SEQ ID NO 221]
WRVTASLQPCWMAQLGELCDLN [SEQ ID NO 201]
WLPCWMAQLGELCVME [SEQ ID NO 187]
GQVVETSLPCWEAQLGELCVLD [SEQ ID NO 202]
WLPCWMAKLGDLCELE [SEQ ID NO 186]
WLPCWLAHLGDICDLQ [SEQ ID NO 195]
RLPCWRAQLGDLCELDWGLDMG [SEQ ID NO 217]
SWPCWMAQLGDLCDLDGSAGAS [SEQ ID NO 220]
IRSCSPCWSADVGELCDLECEW [SEQ ID NO 91]
QPCWLAQVGDLCDLLWPGPL [SEQ ID NO 79]
SKPCWLAQLGDLCDFDWTAADH [SEQ ID NO 224]
QKGFLPCWRAQLGQLCDMESQY [SEQ ID NO 235]
WWPCSSAELGEICDFD [SEQ ID NO 191]
IDRADGWKPCWIAQVGELCVLE [SEQ ID NO 205]
WYPCYMASLGELCDLQSSISPR [SEQ ID NO 232]
WKPCWIADLGELCDLAPAWHEY [SEQ ID NO 216]
YKPCWIAQLGELCELE [SEQ ID NO 183]
MGSWLPCWMAQLGDLCDVEGGM [SEQ ID NO 234]
WQPCWMAQLGELCDLE [SEQ ID NO 184]
GYPCWLAQLGDYCDLDAGAPSW [SEQ ID NO 219]
WSPCWIATLGELCDLD [SEQ ID NO 193]
QRNSFPCWLAQLGDLCDLGDWA [SEQ ID NO 240]
EQGMLGYFPCWKALLGDVCDLD [SEQ ID NO 200]
FKPCWIANLGELCDMDDERSSE (disulfide 4-13 (inferred)) [SEQ ID NO 212]
